According to patent CN117700556A (SUZHOU ABCARTA MEDICAL TECH CO LTD; XIANGYA HOSPITAL …, dated 2024):

Columns and labels:
[1] = target: T1, FRα抗原(SEQ ID NO:1)合成多肽; experiment: ELISA screening of hybridoma clones on the SEQ ID NO:1 peptide
T1 construct: KLH-coupled for immunisation; also called FRα的多肽
T1 peptide: RIAWARTELLNV

[2] = target: T2, 叶酸受体α(Folate receptor alpha，FRα) (human, UniProt P15328 25-234); experiment: immunohistochemistry on FFPE ovarian and breast cancer tissue, antibody at 0.5 μg/mL
T2 construct: whole, on cells; also called FRα蛋白
T2 sequence (P15328 25-234): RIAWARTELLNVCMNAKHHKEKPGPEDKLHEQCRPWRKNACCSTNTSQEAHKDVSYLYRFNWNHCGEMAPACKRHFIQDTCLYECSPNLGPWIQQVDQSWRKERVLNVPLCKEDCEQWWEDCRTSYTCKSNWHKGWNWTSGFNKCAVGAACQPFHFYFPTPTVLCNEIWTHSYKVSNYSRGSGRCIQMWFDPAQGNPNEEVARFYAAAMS

B1: 436I6G8抗FRα小鼠单克隆抗体 (antibody, V domains shown)
VH: EVQLQQSGVELVRSGASVKVSCTPSGFNIKDYFINWVKQRPEQGLEWIGWIDPENGDTEYAPKFQGKATMTADTSSNTAYLQLSSLTSEDTAVYYCYAERVVYWGQGTLITVSA
VL: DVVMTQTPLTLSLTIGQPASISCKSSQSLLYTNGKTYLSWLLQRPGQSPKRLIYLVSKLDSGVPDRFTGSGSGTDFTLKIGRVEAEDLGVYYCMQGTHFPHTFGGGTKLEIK
notes: Variable regions were cloned into InvivoGen pFUSE-CHIg-mG1 and pFUSE2-CLIg-mK (mouse IgG1 heavy, mouse kappa light constant regions); also called 436I6G8克隆的FRα小鼠单克隆抗体; 436I6G8抗FRα单克隆抗体
[1]
  binding result: binds
[2]
  binding result: binds
